According to the supplement of paper PMC9170038:

System: MS2 coat protein
Experiment: apparent KD of MS2 coat protein; designed switch direction (-1 OFF switch, 1 ON switch): -1; higher = weaker reporter binding
In short: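 Designed RNA switches with common flanks were made on Illumina chips by stalled E. coli RNA polymerase. Titration with SNAP-549-labelled MS2 coat protein doubled from 0.7 or 1.5 nM up to 3 µM. Apparent KD is each design's median over clusters after curve-fitting normalised fluorescence.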

[1] = Eterna round: R95, input ligand: FMN 200 uM
[2] = Eterna round: R95, input ligand: microRNA oligo, concentration not stated
[3] = Eterna round: R95, input ligand: none

Row | Sequence | apparent KD of MS2 coat protein [1] [nM] | apparent KD of MS2 coat protein [2] [nM] | apparent KD of MS2 coat protein [3] [nM] | apparent KD of MS2 coat protein (input ligand: FMN 200 uM) [nM] | apparent KD of MS2 coat protein (input ligand: none) [nM] | further results
1 | GGUGCGUAUGUGAGGAUAUGCUGGUCCUUGGCUCGGCAGAAGGCACAUGAGGAUCACCCAUGUGGUGUCGUACG [salish99_Bmod_ex4_063] (puzzle: Brourd's mod of Exclusion 4) | 249 | 36.5 | 54.4 |  |  | 
2 | GGUGCGUUUGUGAGGAUAUGCUGGUCCUUGGAUCAGCAGAAGGCACAUGAGGAUCACCCAUGUGGUGUCGUUCC [salish99_Bmod_Ex4_037] (puzzle: Brourd's mod of Exclusion 4) |  | 137 |  |  |  | 
3 | GGUGCGUUUGUGAGGAUAUGCUGGUCCUUGGUUCGGCAGAAGGCACAUGAGGAUCACCCAUGUGGUGUCGCUCC [salish99_Bmod_Ex4_050] (puzzle: Brourd's mod of Exclusion 4) |  | 36.4 |  |  |  | 
4 | GGUGGGAGGGAUGUGGUGUACAUGAGGAUCACCCAUGUGGUGGACGGGCGCGGGUGCGGGUUUUUUGUUCGUCUUGU [High Nucleotide Full Attached] (Eterna round: R97, puzzle: Sensor, turn-off variant 1) |  |  |  | 131 | 159 | 
5 | GGUGUGAGGCAGGAUAUGCAAUAAGUAAGUAAAGCAGAAGGGUCUACAUGAGGAUCACCCAUGUGUGCGGUAGA [Ex6 #1] (Eterna round: R97, puzzle: Exclusion 6) |  |  |  | 249 | 163 | 
6 | GGUUAUUGCAAGGAUAUGCUUAUUUGAGAAAUUGCAGAAGGUGCAACAUGAGGAUCACCCAUGUUGGAUGGGUU [JR_E6_Sub016] (puzzle: Exclusion 6) |  | 60.7 |  |  |  | 
7 | GGUUAUUGCAAGGAUAUGCUUUUUUUUGAUAUUGCAGAAGGUGCAACAUGAGGAUCACCCAUGUUGGAGGGAUU [JR_E6_Sub020] (puzzle: Exclusion 6) |  | 32.7 |  |  |  | 
8 | GGUUAUUGCAAGGAUAUGCUUUUUUUUUAUAUUGCAGAAGGUGCAACAUGAGGAUCACCCAUGUUGGAGGGAUU [JR_E6_Sub021] (puzzle: Exclusion 6) |  | 28.9 |  |  |  | 
9 | GGUUGACAUGAGGAUCACCCAUGUGAGGAUAUGCGAGAGAAAAAAGUGAGGAAGAGAUGCAGAAGGCGCUGUCG [salish99-ex1_r3_016] (puzzle: Exclusion 1) | 68.5 | 85.8 | 121 |  |  | 
10 | GGUUGGCGAGGAUAUACAUGAGGAUCACCCAUGUCAGAGAAAAAAGUGAGGAAGAAAAGUAGAAGGCGCUGACG [salish99_ex3_r3_017] (puzzle: Exclusion 3) | 199 | 210 | 118 |  |  | 
11 | GGUUGGCGAGGAUAUACAUGAGGAUCACCCAUGUGAGAGAAAAAAGUGAGGAAGCAAAGUAGAAGGCGCUGACG [salish99_ex3_r3_034] (puzzle: Exclusion 3) | 117 | 42.8 | 77.8 |  |  | 
12 | GGUUGGCGAGGAUAUACAUGAGGAUCACCCAUGUGAGAGAAAAAAGUGAGUAAGAAAAGUAGAAGGCGCUGACG [salish99-ex3-33] (Eterna round: R96, puzzle: Exclusion 3) |  |  |  | 401 | 47.3 | apparent KD of MS2 coat protein (input ligand: microRNA oligo, concentration not stated): 51 nM
13 | GGUUGGCGAGGAUAUACAUGAGGAUCACCCAUGUGAGAGAAAGAAGUGAGGAAGAAAAGUAGAAGGCGCUGACG [salish99_ex3_r3_005] (puzzle: Exclusion 3) | 542 | 196 | 59 |  |  | 
14 | GGUUGGCGAGGAUAUACAUGAGGAUCACCCAUGUGGUCCUAAAAUAAAAUAGACCUUUGUAGAAGGCGCGGGUC [salish99_ex3_r4_040] (Eterna round: R97, puzzle: Exclusion 3) |  |  |  | 139 | 215 | 
15 | GGUUGGCGAGGAUAUACAUGAGGAUCACCCAUGUGGUCCUGUGGCUGGAAAAACCUUUGUAGAAGGCGCGGGUC [salish99_ex3_r4_028] (Eterna round: R97, puzzle: Exclusion 3) |  |  |  | 258 | 184 | 
